± gives the uncertainty stated by the source.
Assay: amyloid nucleation score (Sup35N fusion, yeast selection) (log enrichment); library NNK2; higher = more nucleation; inactive = no reads after selection
Procedure, shortened: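 The nucleation score, computed with DiMSum, is the log enrichment of output over input reads, centred on the mode score of non-aggregating sequences. Sequences with under 100 input reads were dropped. Reads were generated by Illumina sequencing of plasmid inserts from psi-negative yeast with Sup35N fused to peptides of 20 random codons, induced with 100 μM copper sulfate for 24 hours and grown 7 days at 30°C on medium lacking adenine and uracil.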

In order of rising amyloid nucleation score:
1. YRMAAVIYIYIIRFSGSCMW  -2.08 ± 0.62
2. RTGRDFLSSIFFTSK  -1.8 ± 0.41
3. LWRSVAKIVSPN  -1.74 ± 0.78
4. YFYNGSRA  -1.61 ± 1.1
5. LLTAFTTYYLIYHSFSRYLA  -1.47 ± 1.1
6. RLTDSSTGDFKNL  -1.45 ± 0.61
7. GSVFSKHQGSFVFSLQQLGL  -1.43 ± 0.34
8. FWRVLLSTLHTIFNMRNNMP  -1.28 ± 0.54
9. MHSLCRM  -1.24 ± 0.53
10. TIGPNKMRVEAGLEFQKLGK  -1.23 ± 0.76
11. KFACCRYVGVYYKTTYSILR  -1.17 ± 0.49
12. NKRGQFMNMQLEKSLYFQGL  -1.15 ± 0.76
13. FIWSLRGDDRSCLRLSSLQT  -1 ± 0.63
14. MSSNYWY  -0.916 ± 1.1
15. STMAFWSYHGWCYGVLIL  -0.898 ± 0.61
16. FEQRGVTSRLCSPLSYEERM  -0.82 ± 0.3
17. QESWHNYESS  -0.805 ± 0.64
18. IYRDPHNYCM  -0.751 ± 1.1
19. FQDTLDLRRLRYWCYPKLGL  -0.69 ± 0.55
20. VWLFNLKGPLTRNLLHNLFA  -0.678 ± 0.63
21. FVDYVTCSQYVNIFRDTLGL  -0.677 ± 0.38
22. ALYFVIQLPV  -0.677 ± 0.63
23. LRYAYTFDVDLSTRQAAVSL  -0.573 ± 0.79
24. TQPPNCQVYKRDDTCYWCGS  -0.509 ± 0.33
25. PILADGLCIFNR  -0.47 ± 0.34
26. SLKANYGWLISNAWDMFHLG  -0.467 ± 0.74
27. LFKCVSTGHYLLTFRVVVYG  -0.456 ± 0.39
28. RVFLSGSWSTHGNFCRLRNV  -0.449 ± 0.41
29. CVRCTFCIVSVICFSIYLSE  -0.448 ± 0.55
30. SILFNVARGCAGVPNLKSYS  -0.43 ± 0.56
31. YCSYQVVRGRPSVAGRDNLQ  -0.424 ± 0.63
32. LILLFLTAQRLCLVSDEESE  -0.409 ± 0.41
33. QWVIKFIHRQIVVPFKFAGI  -0.385 ± 0.8
34. RMTSHCMNSLIWQKNHGMRV  -0.348 ± 0.65
35. FKNTIV  -0.343 ± 0.56
36. WSGQPGFSTYGICLLSVRLK  -0.286 ± 0.65
37. QSRWSFKTYYSREKW  -0.278 ± 0.39
38. FGLLYYAYNRFMLARINGHT  -0.261 ± 1.1
39. EMIIL  -0.259 ± 0.32
40. VTSLG  -0.249 ± 0.25
41. CQCSVSVGNTDSHNLPKVYV  -0.221 ± 1.1
42. MGVLEGLSWVSRNKISGVLQ  -0.191 ± 0.55
43. VYCRNVELIGAYGIFAGSHI  -0.187 ± 0.79
44. ILLISVCYRNIVYISSSLMG  -0.172 ± 0.21
45. LHKISIGKCSRCSCRNTFGE  -0.171 ± 1
46. VVRRYICRVLRMFWYWVVRE  -0.145 ± 0.76
47. FLAGVSVFWSYCDSTNLSNQ  -0.111 ± 0.29
48. CCFTGIKGSYCFSWLACG  -0.082 ± 0.3
49. KSTATSYVMPK  -0.072 ± 0.25
50. WLHTTFSRSICSISIHRALE  -0.07 ± 0.48
51. DVKDDKLFNCLDVVMWVGNL  -0.058 ± 0.15
52. YHGFSQDCLNV  -0.042 ± 0.55
53. LYPCNLELVQQHFLVMTNLG  -0.034 ± 0.23
54. FAVKGCNFGTGVFMRVE  0.021 ± 0.34
55. YYLICST  0.023 ± 0.47
56. SARSIERSDYPMINARHHAC  0.031 ± 0.34
57. RMLRKSNGS  0.066 ± 0.3
58. VGCIYRTQDCCSRDMVCIRV  0.071 ± 0.79
59. TFFLITDTSVMEEM  0.072 ± 0.79
60. WRYIAVNFSNAFNDLVDSCA  0.117 ± 0.79
61. TLIIWLTSICVVSGFVLSGE  0.137 ± 0.25
62. SRFRIMSNLGVKWGPCRVYL  0.164 ± 0.8
63. TLLVKSKDYRNANSG  0.185 ± 0.5
64. VPNVCAGYQPSETETYVLVR  0.185 ± 0.65
65. FCSDGK  0.186 ± 0.3
66. QYVDWLLYGLRDCYWYRRVY  0.192 ± 0.3
67. LVNVIS  0.2 ± 0.35
68. PTIMLTGR  0.208 ± 0.65
69. RKWYGQTSARADVAVS  0.232 ± 0.25
70. VVTFTDYI  0.237 ± 1
71. AWDEINYD  0.292 ± 0.56
72. ICISGAFNVTAHLKLAQASL  0.295 ± 1
73. EGIVAMAERYYSSNIRAVTW  0.296 ± 0.32
74. CVTRMDYTDVSDMHLM  0.307 ± 0.56
75. SNSCHNAATRGYR  0.315 ± 0.74
76. HSMSYFDYAIRLDRVGDVIS  0.339 ± 0.38
77. TLGTIPIWTEIRPEYNSPLM  0.371 ± 0.51
78. LLWLPR  0.376 ± 0.31
79. LCFFT  0.383 ± 0.74
80. TRTNEVSGNAESKNCRCYIG  0.404 ± 0.29
81. TMDYRTND  0.443 ± 0.23
82. SGPRLTYSTLSKICALVQAE  0.457 ± 0.34
83. YSHAGEASWDYVSLWFSSRK  0.49 ± 0.46
84. VLLSKGRNHSPCVHILAIIP  0.494 ± 0.8
85. EVTSTY  0.501 ± 0.46
86. QSNVCKIGSGVDESGNNMTL  0.532 ± 0.37
87. NRTGEYLYRRWVQSGSGGKG  0.553 ± 0.65
88. ICLVLCRGSDA  0.554 ± 0.74
89. LIVWT  0.593 ± 0.54
90. YYFMVL  0.656 ± 0.35
91. EKVNLSTSCRVA  0.664 ± 0.34
92. LLKTSASCIMHGEKQKWMLA  0.671 ± 0.64
93. YGVGMVWMVIECEEVGYVRR  0.683 ± 0.16
94. STRLEVLKLERKIMSSKLFL  0.699 ± 0.18
95. NDCRMFRELTYVPHRERC  0.708 ± 0.49
96. IPNYLSYTWILYNYTFLGAC  0.719 ± 0.38
97. FGYHGSYMWYAFQGHYNKGY  0.743 ± 0.42
98. CYRHSERYRTSSLLSWERGP  0.783 ± 0.57
99. KSVQDNDMSPACRAD  0.804 ± 0.45
100. YHCGFGAS  0.837 ± 0.44
101. RATKGAPN  0.858 ± 0.28
102. RDALCVHWVAYIGNKHGWVA  0.965 ± 0.17
103. GQTLTRRKVKGRQRELTSGQ  0.967 ± 0.36
104. FLFAKYGSIIDTSVVDRLAR  0.979 ± 0.5
105. RDKPPVSKYTSRTREFMLVR  0.987 ± 0.39
106. RYKKAHSSALRCK  0.988 ± 0.74
107. QMQPTGLRQNLSSPWPFVGE  0.993 ± 0.29
108. GDDDVVVDDQNLKCDGYTDL  1.03 ± 0.24
109. CLNTLFVEFRCLSMGACCGI  1.1 ± 0.31
110. LVQGNTFE  1.19 ± 0.44
111. GSVYKCLGSWVIYRFIFSWV  1.19 ± 0.66
112. LVEGCILSRHQESVNLRFCL  1.22 ± 0.29
113. NWLLRG  1.26 ± 0.37
114. MLNSVLAQAMRH  1.28 ± 0.53
115. DSFASTQYCAVSSSVQLAWQ  1.45 ± 0.27
116. HSRLLCWANVDLERFSEWSG  1.46 ± 0.23
117. CWGVVGSAAGWYSGTK  1.46 ± 0.21
118. NQLVWSLNNDLGMENVGGRV  1.46 ± 0.44
119. PVRSMNPLRRLNESSRFDEE  1.48 ± 0.61
120. MLGRKHSWVA  1.67 ± 0.33
121. GTAYAHFFEVNFTSKLLAEF  1.76 ± 0.18
122. RQYCIKDSWGSSGQLSVGLR  2.1 ± 0.17
123. KRKISDSSPRDRWVALLKKL  2.15 ± 0.15
124. CMKGVNSLDIASVSQFNLNR  2.28 ± 0.13
125. FEVLIFVDCWFVVMGRETLN  2.68 ± 0.15
126. FYYNCGWSCNNVTWFSRQFV  3.04 ± 0.12
127. FTVGSMSGDFWLLCWYLR  3.09 ± 0.15
128. HRMRVSIGATYVTALYQVKD  3.18 ± 0.095
129. TVQDMFIFIFYVYNSFGRYM  3.35 ± 0.052
130. TTTAERSVRPVSCDGFIACG  3.56 ± 0.054
131. KLKSVRDLSCLSYHSDIKVK  3.58 ± 0.055
132. TMRHQNASWLGVYINSSRKY  3.72 ± 0.078
133. WWLYAL  3.74 ± 0.11
134. TSGLMMSVCKFDLWQNVND  3.81 ± 0.09
135. TSYIYLMISASPQFLS  4.04 ± 0.11
136. GQLGNCLVSAAFLFAFIVLS  4.33 ± 0.075
137. VLDHDGVVVWNFFPHMYSDP  4.63 ± 0.05
138. YWFFCGRWK  4.7 ± 0.11
139. VLTSFGLW  5.206 ± 0.037
140. VNSLFLVVRYGG  5.25 ± 0.05
141. AGELGLNIYVLSIYK  5.26 ± 0.067
142. IRWCF  5.34 ± 0.09
143. SLFCVYYNDSSLLSYSVWQI  5.75 ± 0.06
144. TMILKWESRCERGPGEVRLV  6.204 ± 0.052
145. HGTATCVAILMNRL  6.35 ± 0.077
146. LVIKCFCA  6.476 ± 0.031
147. IVMFQNFVQMDVNYCCFLEV  6.768 ± 0.04
148. IYRTYYGMNACLINLCMFDN  7.734 ± 0.055
149. LMTSDAGSLAIVVVNCNFGT  7.942 ± 0.023
150. RYASDFWILNICAGDIVILL  8.495 ± 0.054
151. TMDNISSNSFDACSICSYWY  9.385 ± 0.081

For VLYPMLNGGFMESLN, the amyloid nucleation score was “inactive”.
In the case of NLNVGALSSKWVW, the amyloid nucleation score is reported as “inactive”.
With FNKDMSNKFNSDKGELSSFM the amyloid nucleation score was “inactive”.
For MKLYSISELLFKFLLHSLCA, the amyloid nucleation score was “inactive”.
For NCFDKMHKIWLFLLSLSIFC, the amyloid nucleation score was “inactive”.
With CQMYYFYFNLLMWDMA the amyloid nucleation score was “inactive”.
For ISSEHNAWYEVA, the amyloid nucleation score was “inactive”.
For LSLFLLVICSSAFM, the amyloid nucleation score was “inactive”.
For ISWTPSGAIVVS, the amyloid nucleation score was “inactive”.
For RWYSYYTQGDFRRFFLGSN, the amyloid nucleation score was “inactive”.
For GSSGFGRVLTGIYKCYTYWE, the amyloid nucleation score was “inactive”.
In the case of NFCFVWLSREYHRLALCSGV, the amyloid nucleation score is reported as “inactive”.
With YLYLRKASEFLKGRWWVKYK the amyloid nucleation score was “inactive”.
In the case of ILIKIKRWSFRFPFGFGKLD, the amyloid nucleation score is reported as “inactive”.
For KWDWICSVRCRVRSAYQMSN, the amyloid nucleation score was “inactive”.
With PVGVDLWCGSQSNSLNAFLH the amyloid nucleation score was “inactive”.
For PSIWSLDGSYFCSADENCKR, the amyloid nucleation score was “inactive”.
For SYSMLIMFFFVIKYRSDFQL, the amyloid nucleation score was “inactive”.
For RMFSIRFMWCFCSRRKPLLG, the amyloid nucleation score was “inactive”.
In the case of LCGHSNTAVWARHPEYSLVS, the amyloid nucleation score is reported as “inactive”.

Source: the supplement of paper PMC12042874
